According to US7294701B2, “Antibody fragment capable of modulating multidrug resistance and compositions and kits and methods using same” (Technion Research & Development Foundation Ltd., priority 2003, dated 2007):
“And” between values parts separate entries of the source, which are not always exact repeats. Equal entries are not always repeated. “Also recorded” adds a separate entry of the source. Where two headings read alike, the source gives them in different places.

Experiments:
[1] = test system: non-target MRP1 control peptide; experiment: ELISA binding specificity, non-target control peptide; conditions: FIG. 1b
Experimental: (§1) The binding specificity of the purified A2 scFv antibody was determined via ELISA. A biotinylated target peptide having the amino acid sequence of SEQ ID NO:1, or a non-target MRP1 control peptide (provided at 10 μg in 100 μl) were each immobilized onto a flexible microtiter plate using BSA-biotin-streptavidin. A purified A2 scFv was then added, at different concentrations, to the peptide-coated plate and was detected with an anti Myc tag-HRP conjugate antibody.

streptavidin = streptavidin (Streptomyces avidinii, UniProt P22629); experiment: ELISA binding specificity, streptavidin; conditions: FIG. 1b
Experimental: as §1

[2] = molecular target: T1, biotinylated Pgp-derived peptide (SEQ ID NO:1) (Homo sapiens, UniProt P08183); experiment: saturation ELISA; conditions: interpolated, FIG. 1c
T1 construct: made in house; host or cells: chemical synthesis
Text: The binding properties of A2 scFv were further characterized using a saturation ELISA. In this experiment, a biotinylated Pgp-derived peptide (SEQ ID NO:1) was bound to plates precoated with BSA-biotin and exposed to increasing amounts of A2 scFv.

[3] = molecular target: T2, Pgp-derived peptide (SEQ ID NO:1) (Homo sapiens, UniProt P08183); experiment: competition binding radio-immunoassay with [125I]-labeled A2 scFv; conditions: competition with [125I]-labeled A2 scFv, interpolated, FIG. 1d; read-out: concentration of cold competitor for 50% binding inhibition (affinity constant)
T2 construct: made in house; host or cells: chemical synthesis
Experimental: In a competition binding radio-immunoassay the purified A2 scFv (100 μg) was first labeled with [^125I] using the Bolton-Hunter reagent. The [^125I]-labeled A2 scFv antibody was added as a tracer (3-5×10^5 cpm/well) to a flexible microtiter plate, which had been pre-coated with BSA-biotin and the target peptide (SEQ ID NO:1), as described above. A non-labeled (i.e., cold) A2 scFv was then added, as a competitor, to the pre-coated plates at increasing concentrations. Plates were incubated for 1 hr at room temperature, then washed and analyzed by gamma counter.

[4] = molecular target: T3, Pgp on MDR epidermoid carcinoma cells KBV-1 (Homo sapiens, UniProt P08183); experiment: immunofluorescence flow-cytometer analysis of cell binding; conditions: KBV-1, A2 scFv 50 μg/ml, FIG. 2d
T3 construct: MDR and Pgp-overexpressing human carcinoma cells KBV-1; endogenous in cells; host or cells: KBV-1 (KB-V1; drug-selected human epidermoid carcinoma, derived from KB3-1)
T3 sequence (P08183 whole entry): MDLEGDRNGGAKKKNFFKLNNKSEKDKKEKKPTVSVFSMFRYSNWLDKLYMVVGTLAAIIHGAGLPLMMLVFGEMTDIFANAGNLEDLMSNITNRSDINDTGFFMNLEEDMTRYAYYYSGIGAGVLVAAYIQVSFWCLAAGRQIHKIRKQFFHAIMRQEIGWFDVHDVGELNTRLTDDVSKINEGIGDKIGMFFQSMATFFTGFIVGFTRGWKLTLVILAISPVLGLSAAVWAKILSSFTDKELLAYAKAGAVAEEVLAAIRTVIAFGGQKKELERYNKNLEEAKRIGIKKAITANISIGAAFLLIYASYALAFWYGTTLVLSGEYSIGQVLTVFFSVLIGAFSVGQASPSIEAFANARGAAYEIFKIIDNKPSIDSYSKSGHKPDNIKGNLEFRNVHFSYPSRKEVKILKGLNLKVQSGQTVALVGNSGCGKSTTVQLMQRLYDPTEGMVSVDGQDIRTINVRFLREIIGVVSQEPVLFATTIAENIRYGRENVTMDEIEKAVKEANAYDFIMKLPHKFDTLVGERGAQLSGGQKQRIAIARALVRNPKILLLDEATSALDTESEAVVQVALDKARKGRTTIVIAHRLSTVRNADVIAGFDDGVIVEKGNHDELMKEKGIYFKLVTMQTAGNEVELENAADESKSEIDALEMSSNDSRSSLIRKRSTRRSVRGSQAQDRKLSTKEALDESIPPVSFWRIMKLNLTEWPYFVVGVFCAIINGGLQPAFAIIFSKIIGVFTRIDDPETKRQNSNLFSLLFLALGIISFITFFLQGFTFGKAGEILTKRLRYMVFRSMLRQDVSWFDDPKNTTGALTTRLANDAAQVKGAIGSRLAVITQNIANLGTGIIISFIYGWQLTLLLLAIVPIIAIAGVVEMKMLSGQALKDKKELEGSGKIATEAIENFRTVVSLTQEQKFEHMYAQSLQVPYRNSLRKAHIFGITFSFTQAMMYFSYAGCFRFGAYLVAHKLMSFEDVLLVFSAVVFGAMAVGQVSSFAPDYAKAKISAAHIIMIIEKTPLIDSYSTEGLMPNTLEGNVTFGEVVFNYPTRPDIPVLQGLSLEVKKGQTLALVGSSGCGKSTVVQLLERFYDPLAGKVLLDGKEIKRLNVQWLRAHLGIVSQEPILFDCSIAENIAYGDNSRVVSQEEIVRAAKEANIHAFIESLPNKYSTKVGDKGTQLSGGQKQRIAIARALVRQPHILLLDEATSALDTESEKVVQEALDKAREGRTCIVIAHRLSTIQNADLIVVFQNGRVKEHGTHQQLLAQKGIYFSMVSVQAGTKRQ
Experimental: (§2) In another series of experiments, the reactivity and specificity of A2 scFv to Pgp, expressed on the surface of MDR cells, was evaluated. […] The MDR cell lines and the drug-sensitive cell lines used in these experiments are described in Table 2 below.
(§3) Cells growing on six well tissue culture plates were washed twice followed by incubation with soluble purified A2 scFv (50 μg/ml) for 90 minutes on ice. Detection was with anti-Myc (30 μg/ml) and FITC-labeled anti-mouse IgG (1:1000, Jackson). Detection of fluorescent cells was performed on a FACScalibur (Becton Dickinson).

[5] = molecular target: T4, Pgp on MDR ovarian carcinoma cells 2780^ADR (Homo sapiens, UniProt P08183); experiment: as above; conditions: A2 scFv 50 μg/ml, FIG. 2b
T4 construct: MDR and Pgp-overexpressing ovarian carcinoma cells 2780^ADR; endogenous in cells; host or cells: 2780^ADR (drug-selected human ovarian carcinoma)
T4 sequence (P08183 whole entry): as above
Experimental: as §2, §3

[6] = test system: drug-sensitive carcinoma cells KB3-1; experiment: as above; design: species or system human; conditions: KB3-1, A2 scFv 50 μg/ml, FIG. 2c
Experimental: as §2, §3

[7] = test system: drug-sensitive ovarian carcinoma cells 2780; experiment: as above; design: species or system human; conditions: 2780, A2 scFv 50 μg/ml, FIG. 2a
Experimental: as §2, §3

[8] = molecular target: T5, Pgp on MDR carcinoma cells KBV-1 (Homo sapiens, UniProt P08183); experiment: immuno-histochemical staining; assay type: binding; conditions: MDR KBV-1, A2 scFv 0.2 mg/ml, FIG. 2g
T5 construct: MDR and Pgp-overexpressing human carcinoma cells KBV-1; endogenous in cells; host or cells: KBV-1 (KB-V1; drug-selected human epidermoid carcinoma, derived from KB3-1)
T5 sequence (P08183 whole entry): as above
Experimental: (§4) Drug sensitive cells and MDR cells were grown to 50% confluence on glass slides, pre-coated with 4% gelatin in PBS, fixed with 2% formaldehyde in PBS, blocked with 1% BSA in PBS at room temperature, then followed by 90 min incubation with A2 scFv (0.2 mg/ml) in PBS containing 1% BSA (room temperature). The slides were then covered with HRP-labeled anti-Myc-antibody (1:500, in PBS containing 1% BSA) for 1 hr, washes with water, then covered with peroxidase substrate, (AEC) for 2-3 min. Slides were then washed with water and counter staining was performed with hematoxylin.

[9] = molecular target: T4, Pgp on MDR ovarian carcinoma cells 2780^ADR; experiment: immuno-histochemical staining; assay type: binding; conditions: A2 scFv 0.2 mg/ml, FIG. 2e
Experimental: as §4

[10] = test system: drug-sensitive cells 2780; experiment: immuno-histochemical staining; assay type: binding, human; conditions: 2780, A2 scFv 0.2 mg/ml, FIG. 2f
Experimental: as §4

[11] = test system: drug-sensitive cells KB3-1; experiment: immuno-histochemical staining; assay type: binding, human; conditions: drug-sensitive KB3-1, A2 scFv 0.2 mg/ml, FIG. 2h
Experimental: as §4

[12] = molecular target: T6, Pgp drug-efflux activity in EMT^R1 cells (Cricetulus griseus, UniProt P21448); experiment: calcein-AM chromophore efflux assay; assay type: cell-based, rodent (CHO); conditions: EMT^R1, fluorometer, FIG. 4a
T6 construct: a rodent (CHO) MDR cell line EMT^R1; endogenous in cells; host or cells: EMT^R1 (CHO, parental line A8)

2780 cells = experiment: calcein-AM chromophore efflux assay, drug-sensitive cells; assay type: cell-based, human; conditions: 2780, fluorometer, FIG. 4c
KB3-1 cells = experiment: as above; assay type: cell-based, human; conditions: KB3-1, fluorometer, FIG. 4d
A8 cells = experiment: as above; assay type: cell-based, rodent (CHO); conditions: A8, fluorometer, FIG. 4e
2780^ADR cells = experiment: viability of doxorubicin-exposed cells by [3H]-leucine incorporation; assay type: cell-based, human; conditions: A2 scFv 0.2 mg/ml before 5-10 μM doxorubicin
Experimental: Cells were pre-incubated with A2 scFv at a concentration of 0.2 mg/ml, then exposed to 5-10 μM of doxirubicin and then analyzed for [^3H]Leucine content.

[13] = molecular target: T7, Pgp drug-efflux activity in 2780^ADR cells (Homo sapiens, UniProt P08183)
T7 sequence (P08183 whole entry): as above

[14] = molecular target: T7, Pgp drug-efflux activity in 2780^ADR cells; experiment: calcein-AM chromophore efflux assay; conditions: antibody given before calcein, FIGS. 3c, 3e

B1: A2 scFv: novel anti-Pgp single-chain Fv, about 30 kDa, encoded by SEQ ID NO:2, directed to first extracellular loop peptide SEQ ID NO:1 (protein)
chain: QVQLQQSGPDLVKPGASVKISCKASGYSFTGYYMHWVKQSHGKSLEWIGRANPNNGGTSYNQKFKGKAILTVDKSSSTAYMELRSLTSEDSAVYYCARWDGAYWGQGTLVTVSSGGGGSGGGGSGGGGSDVVMTQTPLSLPVSLGDQASISCRSSQSIVHSNGNTYLEWYLQKPGQSPKLLIYKVSNRFSGVPDRFSGSGSGTDFTLKISRVEAEDLGVYYCFQGSHVPFTFGSGTKLELK
modifications: A2 single chain Fv coding sequence
- binding to biotinylated non-target peptide [1]: did not react
- binding to streptavidin (streptavidin): did not react
- Kd ([2]; listed as A2, read-out: concentration required for 50% of maximal binding (affinity constant)): ~150 nM
- Kd ([2]; read-out: concentration required for 50% of maximal binding (affinity constant)): 150 nM and ~150 nM
- Kd [3]: 130 nM and ~130 nM
- reactivity with cells (flow cytometer) [4]: strong reactivity; also recorded: substantial increase in fluorescent intensity
- increase in fluorescent intensity [5]: 10 fold
- reactivity with cells (flow cytometer) [5]: strong reactivity
- reactivity with cells (flow cytometer) [6]: no reactivity; also recorded: no effect on fluorescent intensity
- reactivity with cells (flow cytometer) [7]: no reactivity; also recorded: no effect on fluorescent intensity
- immuno-histochemical staining of cells [8]: intense in situ staining; also recorded: positive antibody-cell reaction
- immuno-histochemical staining of cells [9]: intense in situ staining; also recorded: positive antibody-cell reaction
- immuno-histochemical staining of cells [10]: did not stain; also recorded: no antibody-cell reaction
- immuno-histochemical staining of cells [11]: did not stain; also recorded: no antibody-cell reaction
- effect on calcein uptake [12]: substantial increases in calcein accumulation; also recorded: substantially higher levels of fluorescence
- effect on calcein uptake in drug-sensitive cells (2780 cells): did not affect the level of calcein accumulation; also recorded: no effect
- effect on calcein uptake in drug-sensitive cells (KB3-1 cells): did not affect the level of calcein accumulation; also recorded: no effect
- effect on calcein uptake in drug-sensitive cells (A8 cells): did not affect the level of calcein accumulation; also recorded: no effect
- viability of cells exposed to doxorubicin (2780^ADR cells): effectively reduced the viability of cells; also recorded: substantial loss of viability of cells
- IC50 [13]: 2600 nM
- concentration of maximal inhibitory activity [13]: 100 µg/mL
- effect on calcein uptake / drug efflux activity [14]: substantial increase in fluorescence intensity; also recorded: substantially inhibited drug efflux activity; also recorded: positive dose-response effect
